This note sets out measurements from article PMC2935968, “Structural Basis for Assembly of Hsp90-Sgt1-CHORD Protein Complexes: Implications for Chaperoning of NLR Innate Immunity Receptors” (Molecular Cell, 2010).

B1: Rar1 (wild type, not GST-tagged) (natural protein, Arabidopsis thaliana, UniProt Q9SE33 1-226, looked up)
chain: MEVGSATKKLQCQRIGCNAMFTDDDNPQGSCQFHASGPFFHDGMKEWSCCKQRSHDFSLFLEIPGCKTGKHTTEKPVLAKSVPKHPVAAPTSSPDANAATKDSCSRCRQGFFCSDHGSQPKEQIKQTLNTPGQAEEEKIEPLAPPVQKAVIDINQPQVCKNKGCGQTFKERDNHETACSHHPGPAVFHDRLRGWKCCDVHVKEFDEFMEIPPCTKGWHSSSPDPAV
B2: CS domain of cress (Arabidopsis thaliana) Sgt1a (domain or fragment)
chain: AKYRHEYYQKPEEVVVTVFAKGIPKQNVNIDFGEQILSVVIEVPGEDAYYLQPRLFGKIIPDKCKYEVLSTKIEICLAKADIITWASLEHGK
notes: Sgt1a, Arabidopsis thaliana, CS domain; construct as described previously (Boter et al., 2007; Zhang et al., 2008); also called Sgt1-CS; Sgt-CS
B3: CHORDII domain of cress (Arabidopsis thaliana) Rar1 (domain or fragment)
chain: AVIDINQPQVCKNKGCGQTFKERDNHETACSHHPGPAVFHDRLRGWKCCDVHVKEFDEFMEIPPCTKGWHSSS
notes: Rar1, Arabidopsis thaliana, CHORDII domain; also called Rar1-CHORDII; isolated CHORDII

The target in one test is Hsp90 ( (Arabidopsis, H. vulgare or …, UniProt Q7XJ80 1-700)). The test is described as follows: cell-based or functional assay.
Hsp90 (, sequence (Q7XJ80 entry or part of it): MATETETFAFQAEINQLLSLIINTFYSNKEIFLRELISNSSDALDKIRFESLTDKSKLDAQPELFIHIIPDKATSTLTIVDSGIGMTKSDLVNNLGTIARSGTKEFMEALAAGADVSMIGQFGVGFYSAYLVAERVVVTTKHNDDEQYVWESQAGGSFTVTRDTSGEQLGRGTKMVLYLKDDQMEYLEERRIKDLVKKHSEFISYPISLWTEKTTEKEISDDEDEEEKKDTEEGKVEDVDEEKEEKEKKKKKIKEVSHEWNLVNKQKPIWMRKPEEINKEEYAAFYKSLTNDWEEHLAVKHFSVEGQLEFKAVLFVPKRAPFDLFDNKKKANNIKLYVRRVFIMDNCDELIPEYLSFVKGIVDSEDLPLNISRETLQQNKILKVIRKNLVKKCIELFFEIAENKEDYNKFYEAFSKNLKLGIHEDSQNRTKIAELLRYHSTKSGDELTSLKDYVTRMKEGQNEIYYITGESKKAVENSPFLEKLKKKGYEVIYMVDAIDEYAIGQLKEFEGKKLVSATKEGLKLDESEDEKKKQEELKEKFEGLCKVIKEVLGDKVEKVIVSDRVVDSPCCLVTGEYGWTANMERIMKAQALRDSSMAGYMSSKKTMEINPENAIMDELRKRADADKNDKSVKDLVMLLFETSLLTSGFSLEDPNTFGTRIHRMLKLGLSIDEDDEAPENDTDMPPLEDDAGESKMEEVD
The target of a further test is T1, GST-Rar1 (wild type) (Arabidopsis thaliana, UniProt Q9SE33 1-226).
T1 construct: Rar1, Arabidopsis thaliana, wild type; Construct details are in the Supplemental Information; also called Wild-type GST-Rar1; GST-tagged Rar1
T1 sequence (looked up): B1 chain
The experiment in a line: pull-down; GST-Rar1 as bait, Hsp90, untagged Rar1 and Sgt1-CS present. To be noted: both partners purified.

The target of test [1] is B2. The test is described as follows: ITC; Rar1-CHORDII with Sgt1-CS (Figure S2C); conditions not shown. Conditions: both partners purified.

Turning to B1, the “ATP turnover of Ta-Hsp90 with increasing concentrations of Rar1 (up to 20-fold excess)” value with Hsp90 was found to be 2 fold.
Consider B2, for which the binding result with GST-Rar1 (wild type) is given as “binds”.
By Kd is commonly meant the constant that tells how readily two partners part at equilibrium. In turn, B3 came in with a Kd in test [1] of 3.09 ± 0.15 µM.
